Test results published in PMC5161667 (Nature, 2016).
Values belong to the molecule of their own block, whether it stands above or below them.

Key:
[1] = target: ExbD_(N78C) labeled with MTSL (Ton subcomplex) (E. coli (K-12 strain)) (UniProt P0ABV2); assay: DEER spectroscopy
[2] = target: ExbD_(E113C) labeled with MTSL (E. coli (K-12 strain)) (UniProt P0ABV2); assay: DEER spectroscopy
[3] = target: ExbD_(N78C) labeled with MTSL (fully assembled Ton complex) (E. coli (K-12 strain)) (UniProt P0ABV2); assay: DEER spectroscopy
[4] = target: ExbD_(E113C) (E. coli (K-12 strain)) (UniProt P0ABV2); assay: cross-linking
crystal structure [5] = target: the molecule itself; assay: crystal structure
DEER spectroscopy = target: the molecule itself; assay: DEER spectroscopy
crystal structure [6] = target: the molecule itself; assay: crystal structure; remark: listed apart in the source

Molecule: ExbD_(E113C) labeled with MTSL (from UniProt P0ABV2 1-141) (natural protein)
- stoichiometry N [2]: 2

B1: ExbB (natural protein, E. coli (K-12 strain), UniProt P0ABU7 1-244, looked up)
chain: MGNNLMQTDLSVWGMYQHADIVVKCVMIGLILASVVTWAIFFSKSVEFFNQKRRLKREQQLLAEARSLNQANDIAADFGSKSLSLHLLNEAQNELELSEGSDDNEGIKERTSFRLERRVAAVGRQMGRGNGYLATIGAISPFVGLFGTVWGIMNSFIGIAQTQTTNLAVVAPGIAEALLATAIGLVAAIPAVVIYNVFARQIGGFKAMLGDVAAQVLLLQSRDLDLEASAAAHPVRVAQKLRAG
- stoichiometry N (crystal structure [5]): 5

B2: ExbB labeled at C25 with MTSL (natural protein, E. coli (K-12 strain), UniProt P0ABU7 1-244, looked up)
chain: MGNNLMQTDLSVWGMYQHADIVVKCVMIGLILASVVTWAIFFSKSVEFFNQKRRLKREQQLLAEARSLNQANDIAADFGSKSLSLHLLNEAQNELELSEGSDDNEGIKERTSFRLERRVAAVGRQMGRGNGYLATIGAISPFVGLFGTVWGIMNSFIGIAQTQTTNLAVVAPGIAEALLATAIGLVAAIPAVVIYNVFARQIGGFKAMLGDVAAQVLLLQSRDLDLEASAAAHPVRVAQKLRAG
modifications: MTSL spin label on Cys25 (50% labeling efficiency)
- stoichiometry N (DEER spectroscopy): 5

B3: ExbB_(C25S), selenomethionine-substituted (natural protein, E. coli (K-12 strain), UniProt P0ABU7 1-244, looked up)
chain: MGNNLMQTDLSVWGMYQHADIVVKSVMIGLILASVVTWAIFFSKSVEFFNQKRRLKREQQLLAEARSLNQANDIAADFGSKSLSLHLLNEAQNELELSEGSDDNEGIKERTSFRLERRVAAVGRQMGRGNGYLATIGAISPFVGLFGTVWGIMNSFIGIAQTQTTNLAVVAPGIAEALLATAIGLVAAIPAVVIYNVFARQIGGFKAMLGDVAAQVLLLQSRDLDLEASAAAHPVRVAQKLRAG
modifications: selenomethionine-substituted
- stoichiometry N (crystal structure [6]): 5

Now from value to molecule:

- stoichiometry N [1]: 2
Molecule: ExbD_(N78C) labeled with MTSL (Ton subcomplex) (from UniProt P0ABV2 1-141) (natural protein)

- stoichiometry N [3]: 2
Molecule: ExbD_(N78C) labeled with MTSL (fully assembled Ton complex) (from UniProt P0ABV2 1-141) (natural protein)

- stoichiometry N [4]: 2
Molecule: ExbD_(E113C) (from UniProt P0ABV2 1-141) (natural protein)
